Experimental data published in patent US20040248184A1 (published 2004).
Values belong to the binder of their own block, whether it stands above or below them.

B1: rat Reg receptor (rat Reg-binding protein, rat homologue of human EXTL3/EXTR1), 919 amino acids, with N-terminal HA tag (receptor)
chain: YPYDVPDYAMTGYTMLRNGGVGNGGQTCMLRWSNRIRLTWLSFTLFIILVFFPLIAHYYLTTLDEADEAGKRIFGPRAGNELCEVKHVLDLCRIRESVSEELLQLEAKRQELNSEIAKLNLKIEACKKSIENAKQDLLQLKNVISQTEHSYKELMAQNQPKLSLPIRLLPEKDDAGLPPPKVTRGCRLHNCFDYSRCPLTSGFPVFVYDSDQFAFGSYLDPLVKQAFQATVRANVYVTENAAIACLYVVLVGEIQEPAVLQPADLEKQLHSLPHWRTDGHNHVIINLSRKSDTQNLLYNVSTGRAMVAQSTFYAAQYRAGFDLVVSPLVHAMSEPNFMEIPPQVPVKRKYLFTFQGEKIESLRSSLQEARSFEEEMEGDPPADYDDRIIATLKAVQDSKLDQVLVEFTCKNQPKPSLPTEWALCGEREDRLELLKLSTFALIITPGDPSLLISSGCATRLFEALEVGAVPVVLGEQVQLPYHDMLQWNEAALVVPKPRVTEVHFLLRSLSDSDLLAMRRQGRFLWETYFSTADSIFNTVLAMIRTRIQIPAAPIREEVAAEIPHRSGKAAGTDPNMADNGDLDLGPVETEPPYASPKYLRNFTLTVTDCYRSWNSAPGPFHLFPHTPFDPVLPSEAKFLGSGTGFRPIGGGAGGSGKEFQAALGGNVQREQFTVVMLTYEREEVLMNSLERLNGLPYLNKVVVVWNSPKLPSEDLLWPDIGVPIMVVRTEKNSLNNRFLPWNEIETEAILSIDDDAHLRHDEIMFGFRVWREARDRIVGFPGRYHAWDIPHQSWLYNSNYSCELSMVLTGAAFFHKYYAYLYSYVMPQAIRDMVDEYINCEDIAMNFLVSHITRKPPIKVTSRWTFRCPGCPQALSHDDSHFHERHKCINFFVKVYGYMPLLYTQFRVDSVLFKTRLPHDKTKCFKFI
notes: also called rEXTL3; pCI•rEXTL3
B2: human REG protein (REG Iα) (ligand, UniProt P05451 23-166, looked up)
chain: QEAQTELPQARISCPEGTNAYRSYCYYFNEDRETWVDADLYCQNMNSGNLVSVLTQAEGAFVASLIKESGTDDFNVWIGLHDPKKNRRWHWSSGSLVSYKSWGIGAPSSVNPGYCVSLTSSTGFQKWKDVPCEDKFSFVCKFKN
notes: mature; also called human REG Iα; REG Ia
B4: rat Reg protein (Reg I) (ligand, UniProt P10758 22-165, looked up)
chain: QEAEEDLPSARITCPEGSNAYSSYCYYFMEDHLSWAEADLFCQNMNSGYLVSVLSQAEGNFLASLIKESGTTAANVWIGLHDPKNNRRWHWSSGSLFLYKSWDTGYPNNSNRGYCVSVTSNSGYKKWRDNSCDAQLSFVCKFKA
modifications: as tracer labelled with 125I using Bolton-Hunter reagent; used unlabelled as competitor
notes: mature; also called rat Reg I

Assays:
[1] = molecular target: B2; assay: competition binding on CHO cells stably expressing the rat Reg receptor (line RegR-#3): unlabelled human REG is varied against 125I rat Reg protein (50 ng/ml), gamma counting
Procedure: (§1) The rat Reg-binding protein (also called EXTL3/EXTR1) expression vector constructed in Example 8 or the control vector was introduced into COS-7 cells by electroporation and expressed transiently. CHO cells expressing the Reg receptor stably were isolated as described above. The cells (7.5×10⁵ cells) were washed with RPMI1640 (Roswell Park Memorial institute 1640 medium) and incubated on ice in the presence of ¹²⁵I labeled rat Reg protein (50 ng/ml, 1.5×10⁵ cpm/ml) with various concentrations of unlabeled rat Reg or human REG protein in RPMI1640 containing 1% fetal calf serum for 2 h. After washing with RPMI1640 three times, cells were solubilized by 1 ml of 100 mM Tris-HCl (pH 7.6), 1 mM EDTA and 1% Triton X-100. The radioactivity of the lysate was-determined by a γ-counter (Cobra, Packard). As a result, rat Reg binding protein expression vector-introduced-COS-7 cells bound to ¹²⁵I-labeled rat Reg protein and the binding was decreased by the addition of unlabeled Reg protein (FIG. 6).

rat Reg protein (Reg I) [2] = molecular target: B4; assay: radioligand binding of 125I rat Reg protein to CHO cells stably expressing the rat Reg receptor
Procedure: as §1

[3] = molecular target: B1; assay: displacement of 125I rat Reg protein (competitor tracer) from CHO cells stably expressing the rat Reg receptor
Procedure: as §1

rat Reg protein (Reg I) [4] = molecular target: B4; assay: binding of 10 nM [125I] rat Reg I to transiently transfected COS-7 cells on ice for 2 h, gamma counting, with (+) or without (-) 100-fold unlabelled rat Reg I
Procedure: Specifically, first, [¹²⁵I] rat Reg I stock solution (50 ng/μl=˜3.33 μM, 2.7×10⁵ cpm/μl) was diluted to 10 nM using DMEM. In addition, a diluted solution in which non-labeled Reg I stock solution (2250 ng/μl=150 μM) was added at 100-folds the concentration of [¹²⁵I] Reg I (1 μm), was prepared.
3 ml of 2.5×10⁵ cells/ml transfected COS cells were seeded onto 6 well plates and cultured at 37° C. for 2 days. After washing with ice-cold DMEM, 3 ml DMEM containing [¹²⁵I] rat Reg I was added (10 nM, final concentration). In a competitive inhibition experiment, 100-fold amount of non-labeled Reg I coexisted. After keeping on ice for 2 hours and then washing 3 times with DMEM, 1 ml/well of [100 mM Tris-HCl (pH 7.6), 1 mM EDTA, 1% Triton X-100] was added to lyze the cells, and [¹²⁵I] radioactivity was counted by using a γ-counter.

[5] = molecular target: B1; assay: displacement of 125I rat Reg protein from CHO cells stably expressing the rat Reg receptor
Procedure: as §1

Binder: B1
- binding result [1]: binds
- Kd (rat Reg protein (Reg I) [2]): 4.41 nM

Binder: B2
- Ki [3]: 7.41 nM

- binding result (rat Reg protein (Reg I) [4]): binds
B3: rat Reg-binding protein comprising 364 amino acids (cDNA isolated in Example 5, expression vector pCI-167.1) (receptor)
chain: MTGYTMLRNGGVGNGGQTCMLRWSNRIRLTWLSFTLFIILVFFPLIAHYYLTTLDEADEAGKRIFGPRAGNELCEVKHVLDLCRIRESVSEELLQLEAKRQELNSEIAKLNLKIEACKKSIENAKQDLLQLKNVISQTEHSYKELMAQNQPKLSLPIRLLPEKDDAGLPPPKVTRGCRLHNCFDYSRCPLTSGFPVFVYDSDQFAFGSYLDPLVKQAFQATVRANVYVTENAAIACLYVVLVGEIQEPAVLQPADLEKQLHSLPHWRTDGHNHVIINLSRKSDTQNLLYNVSTGRAMVAQSTFYAAQYRAGFDLVVSPLVHAMSEPNFMEIPRVTIFSLGRGEEEQEKLGVWRGRPPPGWGAGP
notes: also called 1.6 kbp cDNA clone

Binder: B4
- Ki [5]: 1.61 nM
